Experimental data reported in patent publication US8399206B2, “Methods for diagnosis, prognosis and methods of treatment” (Nodality, Inc., priority 2008, dated 2013).

B1: IL-27: interleukin-27 (protein, UniProt Q8NEV9 29-243; Q14213 21-229, looked up)
Interleukin-27 subunit alpha: FPRPPGRPQLSLQELRREFTVSLHLARKLLSEVRGQAHRFAESHLPGVNLYLLPLGEQLPDVSLTFQAWRRLSDPERLCFISTTLQPFHALLGGLGTQGRWTNMERMQLWAMRLDLRDLQRHLRFQVLAAGFNLPEEEEEEEEEEEEERKGLLPGALGSALQGPAQVSWPQLLSTYRLLHSLELVLSRAVRELLLLSKAGHSVWPLGFPTLSPQP
Interleukin-27 subunit beta: RKGPPAALTLPRVQCRASRYPIAVDCSWTLPPAPNSTSPVSFIATYRLGMAARGHSWPCLQQTPTSTSCTITDVQLFSMAPYVLNVTAVHPWGSSSSFVPFITEHIIKPDPPEGVRLSPLAERQLQVQWEPPGSWPFPEIFSLKYWIRYKRQGAARFHRVGPIEATSFILRAVRPRARYYVQVAAQDLTDYGELSDWSLPATATMSLGK
B2: FLT-3L: fms-like tyrosine kinase receptor-3 ligand (protein, UniProt P49771 27-235, looked up)
Fms-related tyrosine kinase 3 …: TQDCSFQHSPISSDFAVKIRELSDYLLQDYPVTVASNLQDEELCGGLWRLVLAQRWMERLKTVAGSKMQGLLERVNTEIHFVTKCAFQPPPSCLRFVQTNISRLLQETSEQLVALKPWITRQNFSRCLELQCQPDSSTLPPPWSPRPLEATAPTAPQPPLLLLLLLPVGLLLLAAAWCLHWQRTRRRTPRPGEQVPPVPSPQDLLLVEH

Legend:
Assay type in all cases: cell-based, human
[1] = system: FLT3-WT and FLT3-ITD AML leukemic blasts; experiment: SCNP signaling and apoptosis in FLT3-WT versus FLT3-ITD AML samples (Example 9)
Excerpt: (§1) This example identifies intracellular signaling pathways associated with FLT3 ITD in two independent cohorts of diagnostic AML samples that serve as an improvement over current clinical tools in the identification of clinically meaningful altered FLT 3 and has implications for cohort selection in the development of FLT3 inhibitors. The two cohorts of data were further analyzed to investigate the differences in signaling between FLT-WT and FLT-ITD samples. The first cohort of data (“study 1”) comprised the 34 samples from University Health Network outlined in Table 16 and Table 19. The second cohort of data (“study 2”) comprised an 83 sample subset of MD Anderson Cancer Center data outlined in Table 16 (and Table 19). The 83 sample subset was selected based on known FLT3 mutation status. Both cohorts of data were used to investigate differences in FLT3 signaling between leukemic blasts and control data.
(§2) In order to further characterize wild-type FLT receptor signaling in AML, we compared FLT3L-induced signaling in the myeloblast population of control BMMC samples with FLT3L-induced signaling in the leukemic blast population of FLT3-WT AML samples.
Univariate analysis, unadjusted for multiple testing, was performed sequentially and independently on the two study cohorts in order to identify signaling nodes that distinguished with FLT3-ITD from FLT3-WT AML patient samples. […] Results from both studies include the AUC, Wilcoxon and t-test p-value for each node, and the number/mean value of the samples in the FLT3-ITD and FLT3-WT AML groups with common stratifying nodes summarized in FIG. 23. Although the majority of the discussion herein is directed to nodes that had similar reponses within the two cohorts of data, some differences were observed between the two cohorts of data. These differences may have been due to the different clinical characteristics of the two cohorts of data, specifically biases in the data from UHN.

[2] = system: AML BMMC leukemic blasts; experiment: SCNP modulated signaling assay, AML study No. 2 (BMMC, CR vs NR, clinical sub-groups)
Experimental: Two independent sets of cryopreserved samples were analyzed sequentially. The first set consisted of 35 peripheral blood mononuclear cell (PBMC) samples derived from AML patients. The second set consisted of 134 cryopreserved bone marrow mononuclear cell (BMMC) samples derived from AML patients. These samples were the same samples used in the previous examples. Sample inclusion criteria required collection prior to initiation of induction chemotherapy, AML classification by the French-American-British (FAB) criteria as M0 through M7 (excluding M3) and availability of clinical annotations.
In the first study, induction chemotherapy consisted of at least one cycle of standard cytarabine-based induction therapy (i.e. daunorubicin 60 mg/m^2×3 days, cytarabine 100-200 mg/m^2 continuous infusion×7 days); responses were measured after one cycle of induction therapy. In the second study, cytarabine (200 mg/m^2 to 3 g/m^2) was used in combination with an anthracycline (daunorubicin or idarubicin) or an additional anti-metabolite (e.g. fludarabine or troxacitabine), and sometimes, an experimental agent (Table 16). […] Standard clinical and laboratory criteria were used for defining complete response (CR) in both studies. […] Classified as “CRp,” these samples were included in the CR group for all primary analysis. The univariate analyses were also repeated with the CRp patients classified into the NR sample group for sensitivity analysis.
Cyropreserved samples were thawed at […], washed and centrifuged in PBS, 10% FBS and 2 mM EDTA. The cells were re-suspended, filtered to remove debris and washed in RPMI cell culture media, 1% FBS, then stained with Live/Dead Fixable Aqua Viability Dye to distinguish non-viable cells. The cells were then re-suspended in RPMI, 1% FBS, aliquoted to 100,000 cells/condition and rested for 1-2 hours at 37° C. prior to SCNP assays. Each condition included two to five phenotypic markers for cell population gating (eg, CD45, CD33), up to three intracellular stains or up to three additional surface markers or control antibodies for an eight-color flow cytometry assay.
Functional assays were performed as previously described. Cells were incubated with modulators (Table 18), at 37° C. for 3-15 minutes, fixed with 1.6% paraformaldehyde (final concentration) for 10 minutes at 37° C., pelleted and permeabilized with 100% ice-cold methanol and stored at −80° C.
Data was acquired using FACS DIVA software on both LSR II and CANTO II Flow Cytometers (BD). For all analyses, dead cells and debris were excluded by forward scatter (FSC), side scatter (SSC), and Amine Aqua Viability Dye measurement. Leukemic cells were identified as cells that lacked the characteristics of mature lymphocytes (CD45^++, CD33^−) and that fit the CD45 and CD33 versus right-angle light-scatter characteristics consistent with myeloid leukemia cells.
The median fluorescence intensity (MFI) was computed for each node from the fluorescence intensity levels for the cells in the myeloid population. The MFI values were then used to compute a variety of metrics by comparing them to baseline or background values, including the unmodulated condition, cellular autofluorescence and antibody isotype controls. The following metrics were computed: • 1. Basal MFI (“Basal”)=log2(MFIUnmodulated Stained)−log2(MFIGated Unstained (Autofluoresence)), designed to measure the basal levels of a certain protein under unmodulated conditions. • 2.

[3] = system: healthy bone marrow myeloblast (BMMC); experiment: FLT3L-induced signaling in healthy control BMMC myeloblasts (Example 9); settings: BMMC samples
Excerpt: as §1, §2

[4] = Study No. 2, all patients, CR samples
[5] = Study No. 2, all patients, NR samples

Molecule | responsiveness to IL-27 stimulation ([1]; FLT3-ITD samples) | IL-27-induced p-Stat responses ([1]; FLT3-WT samples) | Mean Value of CRs, p-Stat1 Total Phospho [2, 4] | Mean Value of CRs, p-Stat3 Total Phospho [2, 4] | Mean Value of CRs, p-Stat3 Fold ([2]; Study No. 2, all patients, CR samples, negative = down regulation) | Mean Value of NRs, p-Stat1 Total Phospho [2, 5] | Mean Value of NRs, p-Stat3 Fold [2, 5] | Mean Value of NRs, p-Stat3 Total Phospho [2, 5] | IL-27 response, NR vs CR ([2]; patients younger than 60 years old) | FLT3L-induced PI3K and MAPK pathway activation ([1]; FLT3-ITD samples compared to FLT3-WT samples) | FLT3L-induced signaling at 15 minutes ([1]; FLT3-WT AML samples) | range of FLT3L-induced S6 signaling ([1]; FLT3-WT AML samples) | FLT3L-induced p-Akt and p-S6 ([1]; FLT3-WT AML samples, early time points (4 minutes, 10 minutes)) | FLT3L activation of p-Akt and p-S6 at later time point [3] | range of FLT3L-induced S6 signaling [3] | FLT3L-induced p-Akt and p-S6 ([3]; early time points (4 minutes, 10 minutes)) | Flt3L induced p-Akt and p-Erk ([2]; patients over age 60 or with secondary AML lacking response to induction chemotherapy) | H2O2 and FLT3L responses, NR vs CR ([2]; patients younger than 60 years old (so in the source))
B1 | minimal responsiveness | wide range of p-Stat responses | 1.66 | 1.88 | 0.22 | 2.63 | 0.58 | 2.43 | NRs have higher IL-27 response than CRs |  |  |  |  |  |  |  |  | 
B2 |  |  |  |  |  |  |  |  |  | lower levels of induced and total PI3K and MAPK pathway activation | sustained p-Erk, p-CREB and p-Akt activation | wide range of S6 signaling | increased levels of p-Akt and p-S6 | largely diminished by 15 minutes | narrow range of S6 signaling | increased levels of p-Akt and p-S6 | increased Flt3L induced p-Akt and p-Erk | NRs have higher H2O2 and FLT3L responses than CRs
